Data as given in paper PMC11329700.

B1: GST-Dyn1xA-PRR (dynamin 1xA proline-rich region, amino acids 746-864) [rat] / Amphiphysin 1 [rat (endogenous in rat brain synaptosomes)] (parent)
chain 1: NTTTVSTPMPPPVDDSWLQVQSVPAGRRSPTSSPTPQRRAPAVPPARPGSRGPAPGPPPAGSALGGAPPVPSRPGASPDPFGPPPQVPSRPNRAPPGVPSRSGQASPSRPESPRPPFDL
chain 2: MADIKTGIFAKNVQKRLNRAQEKVLQKLGKADETKDEQFEEYVQNFKRQEAEGTRLQRELRGYLAAIKGMQEASMKLTESLHEVYEPDWYGREDVKMVGEKCDVLWEDFHQKLVDGSLLTLDTYLGQFPDIKNRIAKRSRKLVDYDSARHHLEALQSSKRKDESRISKAEEEFQKAQKVFEEFNVDLQEELPSLWSRRVGFYVNTFKNVSSLEAKFHKEIAVLCHKLYEVMTKLGDQHADKAFSIQGAPSDSGPLRIAKTPSPPEEASPLPSPTASPNHTLAPASPAPVRPRSPSQTRKGPPVPPLPKVTPTKELQQENIINFFEDNFVPEINVTTPSQNEVLEVKKEETLLDLDFDPFKPDVTPAGSAAATHSPMSQTLPWDLWTTSTDLVQPASGGSFNDFTQPQDTSLFTMQTDQNMAETEQALPTEPQAEEPPTTAAAPTAGLDLGLEMEEPKEEAAIPPGTDAGETVGTEGSTGEEAEAEKAALPAGEGESPEGAKIDVESTELASSESPQAAELEAGAPQEKVIPSVVIEPASNHEGEEHQETTTGTETREATEDVAPQGPAGEKQELATEPTPLDSQAATPAPAGAVDASLSAGDAAQELPPGFLYKVETLHDFEAANSDELTLQRGDVVLVVPSDSEADQDAGWLVGVKESDWLQYRDLATYKGLFPENFTRHLE
B2: GST-Dyn1xA-PRR (dynamin 1xA proline-rich region, amino acids 746-864) [rat] / Endophilin A1 [rat (endogenous in rat brain synaptosomes)] (parent)
chain 1: B1 chain 1
chain 2: MSVAGLKKQFHKATQKVSEKVGGAEGTKLDDDFKEMERKVDVTSRAVMEIMTKTIEYLQPNPASRAKLSMINTMSKIRGQEKGPGYPQAEALLAEAMLKFGRELGDDCNFGPALGEVGEAMRELSEVKDSLDMEVKQNFIDPLQNLHDKDLREIQHHLKKLEGRRLDFDYKKKRQGKIPDEELRQALEKFDESKEIAESSMFNLLEMDIEQVSQLSALVQAQLEYHKQAVQILQQVTVRLEERIRQASSQPRREYQPKPRMSLEFATGDGTQPNGGLSHTGTPKPAGVQMDQPCCRALYDFEPENEGELGFKEGDIITLTNQIDENWYEGMLHGQSGFFPINYVEILVALPH

Variants of: B1
Test: GST pull-down, densitometric analysis of Western blots
Details: with Amphiphysin 1 [rat (endogenous in rat brain synaptosomes)]; parent: 100; read off a plot

Row | percent of parent [%] | Variant
1 | 98 | chain 1 NTTTVSTPMPPPVDDSWLQVQSVPAGRREPTSEPTPQRRAPAVPPARPGSRGPAPGPPPAGSALGGAPPVPSRPGASPDPFGPPPQVPSRPNRAPPGVPSRSGQASPSRPESPRPPFDL [chain 1 S29E S33E]
2 | 91 | chain 1 NTTTVSTPMPPPVDDSWLQVQSVPAGRRSPTSSPTPQRRAPAVPPARPGSRGPAPGPPPAGSALGGAPPVPSRPGASPDPFGPPPQVPSRPNRAPPGVPSRSGQAEPSRPEEPRPPFDL [chain 1 S106E S112E]

Variants of: B2
Test: as above
Details: with Endophilin A1 [rat (endogenous in rat brain synaptosomes)]; parent: 100; read off a plot

Row | percent of parent [%] | Variant
3 | 48 | chain 1 S106E S112E
4 | 31 | chain 1 S29E S33E
